Results on two molecules are retold here after patent US20060270832A1.

This test deals with human noradrenaline transporter (hNET) (human), P23975. In words: cell-based or functional assay.
Chain of human noradrenaline transporter (hNET) (human), P23975 (P23975 whole entry): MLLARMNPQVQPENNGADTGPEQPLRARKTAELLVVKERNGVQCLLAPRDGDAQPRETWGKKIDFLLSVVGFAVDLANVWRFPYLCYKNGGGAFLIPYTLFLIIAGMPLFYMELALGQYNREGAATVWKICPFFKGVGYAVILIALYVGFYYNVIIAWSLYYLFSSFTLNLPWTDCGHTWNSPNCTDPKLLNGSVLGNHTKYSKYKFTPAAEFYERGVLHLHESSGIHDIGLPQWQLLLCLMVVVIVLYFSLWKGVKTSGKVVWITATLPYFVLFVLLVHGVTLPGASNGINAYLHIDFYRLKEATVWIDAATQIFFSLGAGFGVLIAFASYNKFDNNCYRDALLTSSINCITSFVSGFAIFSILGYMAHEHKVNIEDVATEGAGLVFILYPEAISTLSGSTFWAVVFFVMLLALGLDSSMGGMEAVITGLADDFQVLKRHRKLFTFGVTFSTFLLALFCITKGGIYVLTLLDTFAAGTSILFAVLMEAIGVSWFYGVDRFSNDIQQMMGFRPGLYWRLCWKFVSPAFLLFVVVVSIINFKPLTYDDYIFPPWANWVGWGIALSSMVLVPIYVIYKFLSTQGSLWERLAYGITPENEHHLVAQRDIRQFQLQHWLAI

B1: SEQ ID NO. 99 (peptide)
peptide: GYKLGCCGYKLCC
modifications: not checked
Turning to B1, the Av IC50, inhibition of NA uptake via hNET (log M (unit not given)) is -6.99.

B2: SEQ ID NO. 85 (peptide)
peptide: WKDLCCGYKLCHPC
modifications: not checked
Molecule B2 came in with an Av IC50, inhibition of NA uptake via hNET (log M (unit not given)) of -7.05.
